What was measured:
[1] = biological target: T1, human NPR1 on HEK293/hNPR1.myc.DDK cells (0 hANP) (human, UniProt P16066 33-1061); experiment: cell-based or functional assay
T1 sequence: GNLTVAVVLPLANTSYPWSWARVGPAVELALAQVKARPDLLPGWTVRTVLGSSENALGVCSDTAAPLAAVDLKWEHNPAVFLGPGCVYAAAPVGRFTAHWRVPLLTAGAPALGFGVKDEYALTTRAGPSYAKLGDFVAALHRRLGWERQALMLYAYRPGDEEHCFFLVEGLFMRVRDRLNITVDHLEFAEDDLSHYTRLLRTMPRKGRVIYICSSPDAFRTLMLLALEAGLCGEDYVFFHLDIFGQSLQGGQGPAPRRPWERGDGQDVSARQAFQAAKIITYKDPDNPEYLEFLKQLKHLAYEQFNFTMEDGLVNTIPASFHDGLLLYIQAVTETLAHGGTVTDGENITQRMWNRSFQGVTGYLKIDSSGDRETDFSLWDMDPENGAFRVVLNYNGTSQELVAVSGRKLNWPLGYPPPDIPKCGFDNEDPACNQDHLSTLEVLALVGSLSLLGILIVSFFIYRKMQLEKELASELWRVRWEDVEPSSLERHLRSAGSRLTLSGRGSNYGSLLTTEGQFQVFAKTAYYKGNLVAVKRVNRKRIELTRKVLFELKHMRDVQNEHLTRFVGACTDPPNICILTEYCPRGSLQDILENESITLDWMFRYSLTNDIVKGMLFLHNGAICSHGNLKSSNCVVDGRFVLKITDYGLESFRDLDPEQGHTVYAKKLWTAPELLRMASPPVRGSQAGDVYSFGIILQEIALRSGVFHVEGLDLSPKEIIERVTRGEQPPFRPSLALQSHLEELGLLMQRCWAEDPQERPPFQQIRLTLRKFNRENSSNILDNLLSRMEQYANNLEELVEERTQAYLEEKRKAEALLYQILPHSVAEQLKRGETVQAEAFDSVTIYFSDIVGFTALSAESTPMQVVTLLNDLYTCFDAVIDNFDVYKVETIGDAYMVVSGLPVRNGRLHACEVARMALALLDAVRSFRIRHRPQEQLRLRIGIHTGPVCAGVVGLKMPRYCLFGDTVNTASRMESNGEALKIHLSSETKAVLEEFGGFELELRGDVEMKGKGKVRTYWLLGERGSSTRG

[2] = biological target: T1, human NPR1 on HEK293/hNPR1.myc.DDK …; experiment: ECL cell binding (MSD), 0 hANP
Method: (§1) All cells were washed once with 1×PBS with Ca²⁺/Mg²⁺ and counted with a Cellometer™ Auto T4 cell counter (Nexcelom Bioscience). Approximately 2.0×10⁴ HEK293/hNPR1.myc.DDK or HEK293 cells were seeded separately onto 96-well carbon electrode plates (MULTI-ARRAY high bind plate, Meso Scale Discovery (MSD, Rockville, MD)) and incubated for 1 hour (h) at 37° C. Nonspecific binding sites were blocked by 2% BSA (w/v) in 1×PBS with Ca²⁺/Mg²⁺for 1 h at room temperature (RT). HEK293/hNPR1.myc. […] The plate-bound antibodies were detected with SULFO-TAG™-conjugated goat polyclonal anti-human IgG antibody specific for heavy and light chains (Jackson Immunoresearch, West Grove, PA) for 1 h, RT.
(§2) After washes, plates were developed with Read Buffer (MSD, Rockville, MD) according to manufacturer's recommended procedure and luminescent signals were recorded with a SECTOR Imager 600 (MSD, Rockville, MD). Luminescence intensity, measured in relative light units (RLU), was recorded to indicate the binding intensity of each antibody at the range of concentrations.
(§3) In addition, direct binding signals (RLU) were analyzed as a function of the antibody concentration and data were fitted with a sigmoidal (four-parameter logistic) dose-response model using R statistical package (open source).

[3] = biological target: T2, human NPR1 on HEK293/hNPR1.myc.DDK cells with 10 nM hANP (NPR1-ANP complex) (human, UniProt P01160 124-151); experiment: ECL cell binding (MSD), +10 nM hANP
T2 construct: also called NPR1-ANP Complex on the Cell Surface
T2 sequence: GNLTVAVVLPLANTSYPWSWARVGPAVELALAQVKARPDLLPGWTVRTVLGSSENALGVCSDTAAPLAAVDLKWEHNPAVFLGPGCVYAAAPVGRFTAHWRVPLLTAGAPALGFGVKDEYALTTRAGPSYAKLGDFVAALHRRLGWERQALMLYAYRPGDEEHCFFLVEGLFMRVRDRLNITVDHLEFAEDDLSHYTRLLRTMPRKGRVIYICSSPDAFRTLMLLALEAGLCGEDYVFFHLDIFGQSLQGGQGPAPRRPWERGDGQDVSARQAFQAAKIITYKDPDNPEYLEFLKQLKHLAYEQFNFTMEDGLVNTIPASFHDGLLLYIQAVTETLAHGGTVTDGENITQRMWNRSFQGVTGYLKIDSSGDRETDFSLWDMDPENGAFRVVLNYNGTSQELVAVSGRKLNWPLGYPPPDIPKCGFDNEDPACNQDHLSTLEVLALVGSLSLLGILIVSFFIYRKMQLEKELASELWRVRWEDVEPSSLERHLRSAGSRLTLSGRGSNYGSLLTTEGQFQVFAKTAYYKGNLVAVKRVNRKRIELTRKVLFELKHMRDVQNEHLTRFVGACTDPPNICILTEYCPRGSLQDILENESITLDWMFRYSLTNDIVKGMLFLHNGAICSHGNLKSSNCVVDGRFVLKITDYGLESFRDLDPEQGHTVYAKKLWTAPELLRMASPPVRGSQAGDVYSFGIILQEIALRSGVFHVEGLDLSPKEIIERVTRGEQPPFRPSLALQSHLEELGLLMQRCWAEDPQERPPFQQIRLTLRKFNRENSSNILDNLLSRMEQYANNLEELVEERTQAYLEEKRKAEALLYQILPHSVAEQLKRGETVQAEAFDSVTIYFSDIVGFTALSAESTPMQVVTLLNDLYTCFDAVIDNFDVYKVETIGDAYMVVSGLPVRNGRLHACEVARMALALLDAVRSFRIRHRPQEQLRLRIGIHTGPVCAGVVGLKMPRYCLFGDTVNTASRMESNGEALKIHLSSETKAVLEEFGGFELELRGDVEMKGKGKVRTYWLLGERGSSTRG
T2 sequence (peptide): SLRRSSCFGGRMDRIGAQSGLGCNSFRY
Method: as §1, §2, §3

[4] = biological target: T3, mNPR1-mFc (mouse); experiment: SPR Biacore, mAb captured by anti-human Fc, 25C
T3 construct: also called mouse NPR1 extracellular domain expressed with a C-terminal mouse IgG2a
T3 chain: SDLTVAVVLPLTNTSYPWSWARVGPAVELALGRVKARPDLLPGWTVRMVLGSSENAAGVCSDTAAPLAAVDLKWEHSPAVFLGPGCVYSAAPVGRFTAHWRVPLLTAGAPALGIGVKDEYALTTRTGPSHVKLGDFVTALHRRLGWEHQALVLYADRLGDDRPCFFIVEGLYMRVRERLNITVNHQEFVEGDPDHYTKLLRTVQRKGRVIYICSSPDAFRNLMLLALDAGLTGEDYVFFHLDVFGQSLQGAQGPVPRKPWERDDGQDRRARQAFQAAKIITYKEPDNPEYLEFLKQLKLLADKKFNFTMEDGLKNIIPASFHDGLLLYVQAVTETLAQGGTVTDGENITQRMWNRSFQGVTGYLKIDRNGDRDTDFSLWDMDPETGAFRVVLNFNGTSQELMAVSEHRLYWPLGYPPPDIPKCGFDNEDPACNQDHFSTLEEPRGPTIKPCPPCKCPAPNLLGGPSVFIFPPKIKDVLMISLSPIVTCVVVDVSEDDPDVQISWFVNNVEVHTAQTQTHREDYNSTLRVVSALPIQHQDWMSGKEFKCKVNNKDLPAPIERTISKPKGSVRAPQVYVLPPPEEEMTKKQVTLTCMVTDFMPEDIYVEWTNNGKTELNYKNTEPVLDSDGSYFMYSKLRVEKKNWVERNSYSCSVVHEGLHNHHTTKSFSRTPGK
Method: (§4) Equilibrium dissociation constant (KD) for different NPR1 reagents binding to purified anti-NPR1 monoclonal antibodies (mAbs) were determined using a real-time surface plasmon resonance based Biacore 4000 biosensor. All binding studies were performed in 10 mM HEPES, 150 mM NaCl, 3 mM EDTA, and 0.05% v/v Surfactant Tween-20, pH 7.4 (HBS-ET) running buffer at 25° C. and 37° C. The Biacore CM5 sensor chip surface was first derivatized by amine coupling with either mouse anti-human Fc specific mAb (GE Healthcare, #BR100839) or goat anti-human Fcy specific polyclonal antibody (Jackson ImmunoResearch Laboratories, #BR-1008-39) to capture anti-NPR1 mAbs.

[5] = biological target: T4, mfNPR1-mFc:hBNP complex (monkey; human, UniProt P16860 103-134); experiment: SPR Biacore, mAb captured by anti-human Fc, 37C
T4 construct: Receptor-Fc pre-complexed with 10-fold hBNP
Method: as §4

[6] = biological target: T3, mNPR1-mFc; experiment: SPR Biacore, mAb captured by anti-human Fc, 37C
Method: as §4

B1: mAb25508 (antibody, human IgG4, V domains shown)
VH: EVQLVESGGGVVRPGGSLRLSCAASGFNVDDYGMSWVRQIPGKGLEWISGINWNGGRIYYADSMKGRITISRDNAKNSLYLQMNSLRAEDTALYHCVRDQWLVRGLDYWGQGTLVTVSS
VL: DIQMTQSPSSLSASVGDRVTITCRASQGIYNYLAWFQQKPGKAPKSLIYAASSLQSGVPSKFSGSGSGTDFTLTISSLQPEDFATYYCQQYNTYPYTFGQGTKLEIK
% Activation (vs ANP max), Expt 1 [1]: 56.1% | EC50 (nM), calcium flux, Expt 1 [1]: 326 nM | Ratio at 3.7 nM Ab concentration of Cell Binding Signal (RLU) to HEK293/hNPR1.myc.DKK relative to parental HEK293 [2]: 18 ratio | EC50 [3]: 1.3 nM | Ratio at 3.7 nM Ab concentration of Cell Binding Signal (RLU) to HEK293/hNPR1.myc.DKK relative to parental HEK293 [3]: 35 ratio | 100 nM Ag Bound (RU) [4]: -1 RU | 100 nM Ag Bound (RU) [5]: 266 RU | Kd [5]: 0.354 nM | koff [5]: 0.00015 s⁻¹ | kon [5]: 423000 M⁻¹ s⁻¹ | t½ [5]: 1.28 h | 100 nM Ag Bound (RU) [6]: 0 RU

Reference: patent US20240309103A1 (Regeneron, published 2024)
